This test addresses receptor binding domain (RBD) of the SARS-CoV-2 spike protein, WT (SARS-CoV-2, UniProt P0DTC2). Description: FACS. (In flow cytometry, cells or beads pass a laser one at a time.)

One may read the Kd as the equilibrium constant for the complex coming apart. Low readings indicate a tighter complex, high ones a looser complex.

B1: Delta-6 scFv (scFv, V domains shown)
VH: EVQLLESGGGLVQPGGTLRLSCAASGFIVSSNYMSWVRQAPGKGLEWVSLVYPGGSTYYADSVKGRFTVSRDNSKNTLYLQMNSLRAEDMAVYYCARDLPSGVDAVDAFDIWGQGTMVTVSS
VL: DIRVTQSPSSLSASVGDRVSITCRASQIISGYLNWYQQKPGSAPQLLIYASSSLQSGVPPRFSGSRSGTEFTLTISSLQPEDFATYYCQQTYSIPFTFGPGTKVDIK
Molecule B1 yielded a Kd of 6.3 nM.
